Results on one protein are retold here after patent US20100297623A1 (COUNCIL OF THE QUEENSLAND INSTITUTE OF MEDICAL RESEARCH, published 2010).

This series deals with the molecule itself. In words: gel filtration (self-association). Background: Size exclusion chromatography separates by hydrodynamic size, large species first.

B1: human ssDNA binding protein 1 (hSSB1) (other)
chain: MTTETFVKDIKPGLKNLNLIFIVLETGRVTKTKDGHEVRTCKVADKTGSINISVWDDVGNLIQPGDIIRLTKGYASVFKGCLTLYTGRGGDLQKIGEFCMVYSEVPNFSEPNPEYSTQQAPNKAVQNDSNPSASQPTTGPSAASPASENQNGNGLSAPPGPGGGPHPPHTPSHPPSTRITRSQPNHTPAGPPGPSSNPVSNGKETRRSSKR
notes: also called human SSB1
For the protein B1, the binding result is “binds”.
